# In patent US11932673B2, “Sodium channel inhibitors” (priority 2017, dated 2024):
# Columns and labels:
# [1] = target: T1, huASIC1a (Homo sapiens, UniProt P78348); experiment: QPatch automated whole-cell patch-clamp on HEK293 cells stably expressing huASIC1a; assay type: cell-based; conditions: pH 6.0 activation after 15-20 min pre-incubation; concentration μM: KB_A07_PcTx1 6.6, KB_A12_PcTx1 5, KB_A12_Mba-1 3, KB_A12_Mba-2 2.3, KB_A07 6, KB_A12 3.3
# T1 sequence (P78348 whole entry, looked up): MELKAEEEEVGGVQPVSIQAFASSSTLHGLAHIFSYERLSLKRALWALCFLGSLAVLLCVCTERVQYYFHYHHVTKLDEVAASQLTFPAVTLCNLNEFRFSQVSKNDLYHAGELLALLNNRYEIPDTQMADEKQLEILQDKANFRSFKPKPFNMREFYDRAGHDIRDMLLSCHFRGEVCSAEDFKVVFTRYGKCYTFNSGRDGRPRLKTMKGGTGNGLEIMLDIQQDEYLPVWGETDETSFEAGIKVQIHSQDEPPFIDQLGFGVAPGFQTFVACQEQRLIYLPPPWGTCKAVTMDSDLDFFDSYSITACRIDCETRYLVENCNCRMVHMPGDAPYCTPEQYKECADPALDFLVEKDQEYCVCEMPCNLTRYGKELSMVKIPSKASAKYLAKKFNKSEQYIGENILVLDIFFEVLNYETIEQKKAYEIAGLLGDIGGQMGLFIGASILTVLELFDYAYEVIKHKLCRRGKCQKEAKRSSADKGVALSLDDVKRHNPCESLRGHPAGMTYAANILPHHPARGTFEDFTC
# Experimental: Knottin Kv 1.3 and ASIC1a blockers expressed in the KnotBody format (see examples 6 and 7) were tested for their ability to inhibit the function of the ion channel targets. The effect of these KnotBodies on cells expressing the human Kv 1.3 (huKv1.3) or human ASIC1a channels was assessed using QPatch automated whole-cell patch-clamp electrophysiology (Sophion).
# To functionally assess the ASIC1a KnotBodies, HEK293 cells stably expressing huASIC1a (Sophion) were analysed using a QPatch electrophysiology assay in the presence or absence of the KnotBody fusions (using KB_A12 as a recipient and replacing the original EETI-II donor as shown in Table 8). The “parental” KB_A12 with the EETI-II donor was used as a negative control. Internal and external physiological solutions were freshly prepared prior to the assay. […]
# At the end of each KnotBody incubation and subsequent ASIC1a current activation, a full blocking concentration (300 nM) of the ASIC1a knottin inhibitor PcTx1 (positive control) was perfused onto the cell recording and a final activating pH 6.0 external solution was applied. The percentage remaining signal between activating pH 6.0 baseline (i.e. pre-KnotBody) and post-KnotBody incubation was determined.
# [2] = target: LOX-1 (Homo sapiens, UniProt P78380); experiment: Phage TRF binding assay of adhiron-antibody fusions on LOX-1; conditions: monoclonal phage; LOX-1 directly immobilised; non-specific binding checked on cMET-FC, GAS6-CD4, FGFR4-CD4, UPA, B-gal
# Experimental: In order to test the functionality of these adhiron-antibody fusions, monoclonal phage prepared from each clone was assessed for binding to LOX-1 in a TRF binding assay. In this assay, LOX-1 (immobilised directly on Maxisorp™ plates) binding of phage displaying adhiron-antibody fusion was detected using a mouse anti-M13 antibody (GE Healthcare) followed by europium conjugated anti-mouse antibody (Perkin Elmer). Parent KnotBodies KB_A07 and KB_A12 (EETI-II fusions) were included as controls. Proteins cMET-FC, GAS6-CD4, FGFR4-CD4, UPA and B-gal were used to examine non-specific binding.
# [3] = target: human Nav1.7 (Homo sapiens, UniProt Q15858); experiment: QPatch patch-clamp on CHO cells stably expressing human Nav1.7, single application (Example 19); assay type: cell-based; conditions: 20 minutes application; run-down of external solution control subtracted
# Experimental: The effect of these KnotBodies on cells expressing human Nav1.7 (huNav1.7) channel was assessed using QPatch automated patch-clamp platform (Sophion). For the testing of Nav1.7 ion channel currents, CHO cells stably expressing human Nav1.7 (GenBank accession number NM 002977; cell line catalogue number CT6003, Charles River Discovery, Cleveland, USA) were subjected to the QPatch electrophysiology assay in the presence or absence of the KnotBody fusions or the antibody isotypes (negative controls). Internal and external physiological solutions were freshly prepared prior to the assay. The extracellular solution contained 145 mM NaCl, 4 mM KCl, 2 mM CaCl2, 1 mM MgCl2, 10 mM HEPES and 10 mM glucose; the pH was adjusted to 7.4 with NaOH; the osmolarity was ˜305 mOsm/L. The intracellular solution contained: KF (120 mM), KCl (20 mM), HEPES (10 mM) EGTA (10 mM); the pH was adjusted to 7.2 with KOH; osmolarity was ˜300 mOsm/L.
# A series of depolarising voltage (channel activating) pulses were used to monitor the channel currents upon adding control (extracellular solution) to define a control baseline of current activity. To these measured control channel currents KnotBody or parental antibody isotypes (control molecules) were applied to the external bathing solution. The parental KnotBody KB_A12 (with trypsin inhibitor knottin EETI-II at CDR2) were used as test molecule isotype controls for the testing. […] The elicited, maximum outward current values measured during the −10 mV activating step for each solution period (a control, baseline level of current was determined at 10 minutes after application of the control external recording solution and a test level of current was determined after 20 minutes of application of KnotBody or its isotype) and average inhibition was determined between the current from the 10 minute baseline control current and the subsequent 20 minute KnotBody application. […] The average inhibition values (with external control reduction subtracted) for KnotBodies and isotypes was calculated.
# human Nav1.7, sequence (Q15858 other isoform, or with tags, fused parts or gaps): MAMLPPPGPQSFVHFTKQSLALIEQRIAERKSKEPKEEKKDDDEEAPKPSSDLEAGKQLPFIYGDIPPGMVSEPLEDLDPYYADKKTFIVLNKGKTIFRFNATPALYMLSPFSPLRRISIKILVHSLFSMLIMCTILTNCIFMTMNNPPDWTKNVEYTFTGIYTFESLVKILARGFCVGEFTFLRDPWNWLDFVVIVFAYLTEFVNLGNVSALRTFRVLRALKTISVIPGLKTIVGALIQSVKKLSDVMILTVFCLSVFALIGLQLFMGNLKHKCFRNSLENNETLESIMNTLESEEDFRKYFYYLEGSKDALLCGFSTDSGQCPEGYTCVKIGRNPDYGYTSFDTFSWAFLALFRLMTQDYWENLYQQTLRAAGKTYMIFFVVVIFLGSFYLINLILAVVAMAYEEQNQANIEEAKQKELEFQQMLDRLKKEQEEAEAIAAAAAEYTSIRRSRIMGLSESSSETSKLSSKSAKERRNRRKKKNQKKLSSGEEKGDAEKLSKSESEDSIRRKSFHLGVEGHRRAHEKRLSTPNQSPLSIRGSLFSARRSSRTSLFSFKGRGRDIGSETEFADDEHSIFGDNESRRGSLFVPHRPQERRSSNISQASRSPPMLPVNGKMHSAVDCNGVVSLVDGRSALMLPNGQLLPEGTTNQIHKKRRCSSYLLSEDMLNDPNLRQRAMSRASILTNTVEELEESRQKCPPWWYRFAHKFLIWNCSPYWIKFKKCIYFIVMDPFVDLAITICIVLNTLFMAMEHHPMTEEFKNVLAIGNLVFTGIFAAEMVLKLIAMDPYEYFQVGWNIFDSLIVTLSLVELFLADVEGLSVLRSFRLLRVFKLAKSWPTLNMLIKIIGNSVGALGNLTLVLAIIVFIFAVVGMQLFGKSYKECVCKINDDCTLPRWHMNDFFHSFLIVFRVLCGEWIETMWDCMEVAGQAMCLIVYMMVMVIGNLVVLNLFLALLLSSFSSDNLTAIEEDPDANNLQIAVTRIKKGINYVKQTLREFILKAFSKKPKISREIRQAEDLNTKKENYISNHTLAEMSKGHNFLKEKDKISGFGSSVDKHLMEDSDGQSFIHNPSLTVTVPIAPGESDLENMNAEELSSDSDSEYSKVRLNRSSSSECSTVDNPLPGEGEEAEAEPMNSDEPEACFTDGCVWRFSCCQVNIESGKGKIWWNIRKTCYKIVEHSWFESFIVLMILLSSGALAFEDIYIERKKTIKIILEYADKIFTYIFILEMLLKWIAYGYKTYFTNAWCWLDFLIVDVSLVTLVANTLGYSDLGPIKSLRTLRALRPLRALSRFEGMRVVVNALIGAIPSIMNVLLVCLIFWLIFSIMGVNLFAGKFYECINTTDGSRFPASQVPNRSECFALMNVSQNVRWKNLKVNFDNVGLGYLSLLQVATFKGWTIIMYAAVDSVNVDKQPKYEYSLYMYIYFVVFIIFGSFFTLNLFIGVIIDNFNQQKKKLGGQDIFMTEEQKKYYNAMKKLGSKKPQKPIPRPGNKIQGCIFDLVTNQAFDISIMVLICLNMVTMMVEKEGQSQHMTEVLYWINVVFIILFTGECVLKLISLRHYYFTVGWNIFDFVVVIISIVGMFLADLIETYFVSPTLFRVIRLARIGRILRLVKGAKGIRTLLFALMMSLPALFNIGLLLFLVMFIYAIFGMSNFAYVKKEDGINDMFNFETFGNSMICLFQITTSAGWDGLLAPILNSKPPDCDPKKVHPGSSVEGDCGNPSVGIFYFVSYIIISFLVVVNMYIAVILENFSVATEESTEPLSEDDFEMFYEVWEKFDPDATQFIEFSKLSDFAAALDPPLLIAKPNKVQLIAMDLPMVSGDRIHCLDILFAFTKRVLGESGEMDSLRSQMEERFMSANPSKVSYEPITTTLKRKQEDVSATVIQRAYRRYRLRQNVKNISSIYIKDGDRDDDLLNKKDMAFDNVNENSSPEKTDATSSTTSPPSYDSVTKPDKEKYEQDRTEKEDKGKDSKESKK
molecule,measurement,setting,value
"KB_A12: EETI-II VL CDR2 KnotBody, D1A12 VH, VL SEQ ID NO: 105/373; parental/isotype control (antibody, V domains shown) VH: EVQLVESGGGLVRPGGSLRLSCAASGFTFSSYAMSWVRQAPGKGLEWVSAISGSGGSTYYADSVKGRFTISRDNTKNSLYLQMTSLRADDTAFYYCVKDFGPGYGTGWFDYWGPGTLVTVSS VL: QSVLTQPPSVSEAPRQRVTITCSGSSSNIGNNAVNWYQQLPGKAPKLLIYAAGRCPRILMRCKQDSDCLAGCVCGPNGFCGANSGVSDRFSAAKSGTSASLAINGLRSEDEADYYCAAWDDSLNGYVFGTGTKLTVLG",% current remaining,[1],67.4%
same,binding to LOX-1,[2],no detectable binding to the LOX-1
same,inhibition in measured Nav1.7 current,[3],"small inhibition in measured current, which was not statistically significant"
